{"source": "the nanobody polyreactivity screen of Harvey et al. (2022)", "data": [{"experiment": "yeast display, Sf9 membrane polyspecificity reagent, FACS + sequencing; frameworks hold sequencing errors", "summary_of_the_method": "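A nanobody's polyreactivity label depends on the gate it was sorted from. Yeast display cells were stained with 10% biotinylated, detergent-solubilized Sf9 membrane reagent for 1 hour at 4 °C, enriched on streptavidin microbeads and sorted by FACS. The low and high (top ~1%) gates were set on anti-HA fluorescence for expression and streptavidin fluorescence for reagent binding.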", "values": [{"sequence": "QVHLVESGGGLFQAGGSLPLSCAASGYIFVRYAKGWYRQAPGKEREFVAAISSSGGSTRYADSVKARFTLSRDNAKNTVYLQMNSLKPEDTAVYYGAATRVARHGSPMYYWGQGTQVTVSS", "polyreactivity (PSR sort gate)": "high polyreactivity"}, {"sequence": "QVQLVESGGGLVQAGGSLRLSCAASGSTFVYYAMGRYRQAPGKERELVAAITASGGGTYYADSVKGRFTISRDNAKNTVYLQMNSLKPEDTAVYYCNRGYDYWGQGTQVTVSS", "polyreactivity (PSR sort gate)": "low polyreactivity"}, {"sequence": "QVQLVESGGGLVQAGGSLRLSCAASGRIFRKYAMGWYRQAPGKERELVAAISGSGGSTYYADSVKGRFTISRDNAKNTVYLQMNSLKPEDTAVYYCAASAGRYSSTLGYYWGQGTQVTVSS", "polyreactivity (PSR sort gate)": "high polyreactivity"}, {"sequence": "QVQLVESGGGLVQAGGSLRLSCAASGRTFRYAMGWYRQSPGKERELVAGITTRGTSTYYADSVKGRFTISRDNAKNTVYLQMNSLKPEDTAVYYCNARPARAVYIHTPTYRYDYWGQGTQVTVSS", "polyreactivity (PSR sort gate)": "high polyreactivity"}, {"sequence": "QVQLVESGGGLVQAGGSLRLSCAASGRIFIVYAMGWYRQAPGKERELVATISWSGGSTYYADSVKGRFTISRDNAKNTVYLQMTSLKPEDTAVYYCAADYRWVDSDSSLFYWYDYWGQGTQVTVSS", "polyreactivity (PSR sort gate)": "high polyreactivity"}, {"sequence": "QVQLVESGGGLVQAGGSLRLSCAASGSNIGWNTMGWYRQAPGKERELVAAITSGGRTYYADSVKGRFTISRDNAKNTVYLQINSLKPEDTAVYYCKAVVRHTYRRFDYWGQGTQVTVSS", "polyreactivity (PSR sort gate)": "high polyreactivity"}, {"sequence": "QVQLVESGGGLVQAGGSLRLSCAASGSTFTPNVMGWNRQAPGKEREYVAAINSSGGSTFYADSVKGRFTISRDTAKYTVYLQMNSLKPEDTAFYYCAASWHTPTFYDEYYYWGQGTQVTVSS", "polyreactivity (PSR sort gate)": "low polyreactivity"}, {"sequence": "QVQLVESGGGLVQAGGSLRLSCAASGFIIARNAMGWYRQAPGKERELVAAISASGGRTYYADSVKGRFTISRDNAKNTVYLKKNSLKPEDTAVYYCAAAVLRYALRFDYWGQGTQVTVSS", "polyreactivity (PSR sort gate)": "high polyreactivity"}, {"sequence": "QVQLVESGGGLVQAGGSLRLSCAASGLTFRYNAMGWYRQATGKERELVARISRNGGRTYYADSVKGRFTISRDNAKNTVYLQMNSLKPEDTAVYYCNVVYFVTTSPGYDYWGQGTQVTVSS", "polyreactivity (PSR sort gate)": "high polyreactivity"}, {"sequence": "QVQLVESGGGLVQAGGSLRLSCAASGSTSKSYTMGWYRQAPGKERELVAAISYSGVSTYYADSVKGRFTISRDNAKNTVYLQMNSLKPEDTAVYDGAADWVPRQYPGRGGYWGQGTQVTVSS", "polyreactivity (PSR sort gate)": "high polyreactivity"}, {"sequence": "QVQLVESGGGLVQAGGSLRLSCAASGRTFPYNARGLYRQAPGKERELVASITRRGGSTYYADSVKGRFTISLDNAKNSVYLQMNSVKPEDTAVYYCNAAYPYVRRYKYGYWGQGTLVTVSS", "polyreactivity (PSR sort gate)": "high polyreactivity"}, {"sequence": "QVQLVESGEGLVQAGGSLRLSCAASGITFDAYTMGWYRQAPGKERELVAAITWSSTSTYYADSVKGRFTISRDNAKNTVYLQMNSLKPEDTAVFYCAAYRVGDYYWGQGTKVTVSS", "polyreactivity (PSR sort gate)": "low polyreactivity"}, {"sequence": "QVQLVESGGGLVQAGGSLRLSCAASGSTFPLYVMGWYRQAPGKERELVAAIDWSGGSTYYADSVKGRFTISRDTAKNTVYLQMNSLKPEDTAVYYCAADSPNSWRMDYWGQGTQVTVSS", "polyreactivity (PSR sort gate)": "low polyreactivity"}, {"sequence": "QVQLVESGGGLVQAGGSLRLSCAASGRTFSSNTMGWYRQAPGKERELVAAIDWSGGRTYYADSVKGRFTISRDNAKNTVYLQLNSLKPEDTEVYYCARSRSYWGIVYGRYDYWGQGTQVTVSS", "polyreactivity (PSR sort gate)": "high polyreactivity"}, {"sequence": "QVQLVESGGGLVQAGGSLRLSCAASGRTFGTYAMGWYRQAPGKDRELVAAISRRGGTTYYADSVKGRFTISRDNAKNTVYLQMNSLKPEDTAVYYCARASWSITTVLSTMDYWGQGTQVTVSS", "polyreactivity (PSR sort gate)": "high polyreactivity"}, {"sequence": "QVQRVESAGGLVQAGGSLRLSCAPSGRILPSNAMGWYRQAPGKERELVAGITSGGSTDYADSVKGRFTISRDNAKNTVYIQMHSLKPEDTAVYYCAADSRRYGVRFDYWGQGTQVTVSS", "polyreactivity (PSR sort gate)": "low polyreactivity"}, {"sequence": "QVQLVESAGGLVQAGGSLRLSCAASGRTFRKYAMGRYRQAPGKERELVAAISSSGGSTFYADSVKGRFTISRDNAKNTVYLQMNSLKPEDTAVYYCAAEALRRYSFGYWGQGTQVTVSS", "polyreactivity (PSR sort gate)": "low polyreactivity"}, {"sequence": "QEQLQESGGGLVKAGGSLRLSCAASGNISPRDAMGWYRQAPGEERDLVASNAYSAITYYADGVKGRYTISRDNAKNTVYVQMNSLKPEDTDVYYCEFYQFTYPVFPAYWGQGTQVTVSS", "polyreactivity (PSR sort gate)": "low polyreactivity"}, {"sequence": "QVHLVESVGGLFQAGGSLRLSCAPSGYIYVANVKGWYRQAPGKERELVAAINRRTGITYYADSVKGRCTNSRDNAKNTVNLQMNSLKTEDTAVYYCAALAQSTTYTRPYDYWGQGTQVTVSS", "polyreactivity (PSR sort gate)": "low polyreactivity"}, {"sequence": "QVQLVESGGGLVQAGGSLRLSCAASGRIFYFNAMGWYRQAPGKEREFVASINSIGDSTYYADSVKGRFTISRDYAKNTVYLQMNRLKPEDTAVYYCNADHGVINYRLDYWGQGTQVTVSS", "polyreactivity (PSR sort gate)": "low polyreactivity"}, {"sequence": "QVQLVESGGGLVQAGGSLRLSCAASGSIFFNTMGWYRQAPGKERELVAAISRSGGSTYYADSVKGRFTISRDNAKNTVYLQMNSLKPEDTAVYYCNALRWSQYTYSSRLGHFDSWGQGTQVTVSS", "polyreactivity (PSR sort gate)": "high polyreactivity"}, {"sequence": "QVQLVESGGGLVQAGGSLRLSCAASGFTFDFYALGWYRQAPGKERELVAAISKNDGTTYYADSVKGRFTISRDNAKNTVYLQMNSLKPEDTAVYYCNAGNNVVVDYDYWGQGTQVTVSS", "polyreactivity (PSR sort gate)": "low polyreactivity"}, {"sequence": "QVQLVESGGGLVQAGGSLRLSCAASGRTFRGNAMGWYRPAPGKERELVAAITTAGGTYYADSVKGRFTISRDNAKNTVYLQMNSLKPEDTAVYYCAKLSHRGQSTGVDYWGQGTQVTVSS", "polyreactivity (PSR sort gate)": "low polyreactivity"}, {"sequence": "QVQLVESGGGIVQAGGSLRLSCAASGSIFGVYAMGWYRQAPGKERELVAAISSSGGRTYYADSVKGRFTISRDNAKNTVYLQMISLKPEDTAVYYCAAVPWRRSTRYDYWGQGTLVTVSS", "polyreactivity (PSR sort gate)": "high polyreactivity"}, {"sequence": "QVQLVESGGGLVQAGGSLRLSCAASGSIFSYYVMGWYRQAPGKERELVAAITRSGGSTYYADSVKGRFTISRDNAKNTVYLQMNSLKPEDTAVYDCNALWRVRGDYWGQGTQVTVSS", "polyreactivity (PSR sort gate)": "high polyreactivity"}, {"sequence": "QVQLVVSGGGLVQAGGSLRLSCAASGFTFGYYAMGWYRQAPGKERELVAAITASGARTYYADSVKGRFTISRDNAKNTVYLQMNSLKPEDTAVYYCAAYTNAYRERWPDYGYWGQGTQVTVSS", "polyreactivity (PSR sort gate)": "high polyreactivity"}, {"sequence": "QVQMQESGGGLVQAGGSLRLICAASGTILYSLGMGWYRQATGKRREFVASITWGTTTNYAERVKGRFTISSDNAKNTVYPKIISLKPEVTAVYYCASPPFGDSSFHYWGQGTQVTVSS", "polyreactivity (PSR sort gate)": "low polyreactivity"}, {"sequence": "QVHLVESGGGLVQAGGSLRLSCAASGRTFAPNAMGWYIQAPGKERELVAAISYNSGTTYYADSVKGRFTISRDNAKNTVYLQMNSLKPEDTAVYYCAARRYYKYDWGQGTQVTVSS", "polyreactivity (PSR sort gate)": "high polyreactivity"}, {"sequence": "QVQLVESGGGIVQAGGSLRLSCAASGRIFLSYAMGWYRQAPGKERELVAAISRNGGSTYYADSVKGRFTISRDNGKNTVYLPMNSLKPEDTAVYYCAAGGDYWGQGTQVTVSS", "polyreactivity (PSR sort gate)": "high polyreactivity"}, {"sequence": "QVQLVESGGGLVQAGGSLRLSCAASGSTFDYYARGWYRQAPGKERELVAGISSSGGRTYYADSVKGRFTISRDNAKNTVYLQMNSLKPEDTAVYYCAARIRVRKHEAFDYWGQGTQVTVSS", "polyreactivity (PSR sort gate)": "low polyreactivity"}, {"sequence": "QVQLVESGGGLVQAGGSLRLSCAASGFTFSTNAMGWYRQAPGKERELVAAISWSGSSTYYADSVKGRFTISRDNAKNTVYLQMNSLKPEDTAVYYCAKSRGQADPTYDYWGQGTQVTVSS", "polyreactivity (PSR sort gate)": "low polyreactivity"}, {"sequence": "QVQLVESGAGLVQAGRSLRLSCAASGRTLSRFAMGGYRQAPGKERELVAGITSGGDTRTYYADSVKGRFTISRDYAKNTVYLQMNSLKPEDPAVYYCWGQVTQVTVSS", "polyreactivity (PSR sort gate)": "low polyreactivity"}, {"sequence": "QVQLVESGRGLVQAGGSLRLSCAPSGFTFNVNAMGWYRQAPGKERELVAAISSSGTRTYYADSVKGRFTISRDNAKNTFYLQMNSLKPEDTAVYYCGASGQAYSGDRMYYWGQGTQVTVSS", "polyreactivity (PSR sort gate)": "high polyreactivity"}, {"sequence": "QVQLVESGGGLVQAGGSLRLSSTASGSTIVAYAMGWYRQAPGKERELVAAITSSGGRTYYADSVKGRFTISRDNAKNSVYLQMNSLKPEDTAVYYCAAVTHGRYDWGQGTQVTVSS", "polyreactivity (PSR sort gate)": "high polyreactivity"}, {"sequence": "QVQLVESGGGLVQAGGSLRLSCAASGSTFVVYAMGWYRQAPGKEREFVAAITYRGGRTYYADSVKGRFTISRDNAKNTVYLQMNSLKPEDTAVYYCNAPIVRSGYVRSIPAVYYSYYYWGQGTQVTVSS", "polyreactivity (PSR sort gate)": "high polyreactivity"}, {"sequence": "QVQLVESGGGLVQAGGSLRLSCAASGITFAVKAMGWSRQAPGKERELVAAISRSAGSTYYADSVKGRFTISRDNAKNTVYLQMNSLKPEDTAVYYCATALRYARSRNRFYYWGQGTQVTVST", "polyreactivity (PSR sort gate)": "high polyreactivity"}, {"sequence": "QVHLVESGGGLVQAGGSLRLSCAASGLTFNRYTMGWYRQAPGKESELVAAITSSGSTYYADSVKGRFTISRDNAKNTVNLQMNSLKPEDTAVDYCNTVYYDWFHYDYWGQGTQVTVSS", "polyreactivity (PSR sort gate)": "high polyreactivity"}, {"sequence": "QVQLVESGGGLVQEGGSLRLSCAASGFTFTSNAMGWYRQAPGKERELVAAITYSGGITYYADSVKGRFTISRDNAKNTVYLQMNSLKPEDTAVYYCAADSTPYVLSGNYDYWGQGTQVTVSS", "polyreactivity (PSR sort gate)": "low polyreactivity"}, {"sequence": "QVQLVESGGGLLQAGGSLRLSCAASGSTFSSYAMGWYRPAPGKERELVAAITSSGGSTYYADSVKGRFTISRDNAKNTVYLKLNSLKPEDTAVYYCAAADVIFWLYYYWGQGTQVTVSS", "polyreactivity (PSR sort gate)": "low polyreactivity"}, {"sequence": "QVQLEESGGGLVQAGGSLRLSCAASGSIFRYYAMGWYRQAPGKERELVAVITRGGSTYYADSVKGRFTISRDNAKNTVYLQMNSLKPEDTAVYYCAADYWPAGLDRGYWGQGTQVTVSS", "polyreactivity (PSR sort gate)": "low polyreactivity"}, {"sequence": "QVQLVESGGGLVQAGGSLRLSCAASGNIFGDNAMGWYRQAPGKERELVAAITRIDGNTYYADSVKGRFTISRDNAKNTVYLQMNSLKPEDTAVYYCATDEPVGRYQHNYYWGQGSQVTVSS", "polyreactivity (PSR sort gate)": "low polyreactivity"}, {"sequence": "QVQLVESGGGFVQAGGSLRISCAASGSTIGGNGKGWYRQAPGKEREIVATITWPSGSTYYADSVKGRFTISRDNAKNTVYLQMKSLKPEDTAVYYCAKNTSSRRNPWYYYWGQGTQVTVSS", "polyreactivity (PSR sort gate)": "high polyreactivity"}, {"sequence": "QVQLVESGGGLVQAGGSLRLSCAASGFTFRWYDMGWYRKAPGKERELVAAIDASDGSTYYADSVKGRFTISRDNAKNTVYLLMNSLKPEDTAVYYCAAEDYQPYFYLYWYDYWGQGTQVTVSS", "polyreactivity (PSR sort gate)": "high polyreactivity"}]}]}
